Measurements published in US20220017612A1 (TILOS THERAPEUTICS, published 2022).
Substitutions are numbered along the chain they refer to. In names and notes the source's numbering stands. Each block holds one binder with its values, some of them ahead of it.

How the values were obtained:
[1] = target: biotinylated human LAP-TGFβ1 (Example 14) (human, UniProt P01137 30-390, biotinylated, sites not stated); experiment: BLI, antigen on tip, CHO supernatant; ratio to wild type
Method: A total of 49 single alanine substitutions were made in the heavy and light chain CDRs of the antibody to identify critical residues for human LAP-TGFβ1 binding. In addition, residue A25 in the light chain was substituted with glycine. Plasmid DNA for these variants was transfected into ExpiCHO cells in 1 mL cultures on 24-well plates, along with wells containing no DNA (negative control) and wells transfected with DNA for the wild-type antibody (positive control). IgG concentrations in each well were determined by binding to Protein A-functionalized tips. Tips were dipped into wells containing the supernatants from each culture. IgG concentrations were determined by comparing the rate of signal change for each well against the rate of signal change for a standard curve of purified 20E6_H0.2aL1_hIgG1 antibody diluted into ExpiCHO media. CHO supernatants were diluted to 0.6 μg/mL in media. A streptavidin-functionalized tip was equilibrated in binding buffer (10 mM sodium phosphate, 150 mM sodium chloride, 1% (w/v) bovine serum albumin, 0.05% (w/v) sodium azide, pH 7.4) and then dipped in a 5 μg/mL solution of biotinylated human LAP-TGFβ1 in binding buffer for 60 seconds to load the tip with antigen. The antigen-loaded tip was then washed in binding buffer and placed in the diluted CHO supernatant. The antigen was allowed to bind to antibody for 5 minutes (association phase), and then the tip was moved to binding buffer (dissociation phase). The association and dissociation phases were fit to a 1:1 binding model to determine binding rate constants.

[2] = target: T1, human LAP-TGFβ1 overexpressed on cells (human, UniProt P01137 30-390); experiment: flow cytometry; black bar HT1080-huB1, grey bar HT1080
T1 construct: HT1080 or P3U1 cells overexpressing wild-type human LAP-TGFβ1; also called HT1080-huB1; HT1080-hβ1
T1 sequence (P01137 30-390): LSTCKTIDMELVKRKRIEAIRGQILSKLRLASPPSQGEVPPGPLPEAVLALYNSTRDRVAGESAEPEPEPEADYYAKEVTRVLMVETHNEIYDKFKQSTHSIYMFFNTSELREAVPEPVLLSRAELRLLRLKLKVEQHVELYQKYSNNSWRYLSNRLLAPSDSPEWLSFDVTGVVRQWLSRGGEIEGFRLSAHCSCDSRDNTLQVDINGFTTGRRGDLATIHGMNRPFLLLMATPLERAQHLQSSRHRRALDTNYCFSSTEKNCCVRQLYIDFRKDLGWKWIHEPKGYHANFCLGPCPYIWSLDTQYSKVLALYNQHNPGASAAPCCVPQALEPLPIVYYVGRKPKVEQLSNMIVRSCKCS

biotinylated human LAP-TGFβ1 (Example 14), sequence (P01137 30-390 limits assumed): as the sequence (P01137 30-390) above

B1: 20E6_H0.2aL1_hIgG1 VH_D52A (antibody, V domains shown)
VH: EVQLVQSGAEVKKPGASVKVSCKASGYTFTSYWMHWVRQAPGQGLEWMGRIAPQSGGIKYAQKFQGRATLTVDTSTSTAYMELSRLRSDDTAVYYCARWDYGGYFDVWGQGTLVTVSS
VL: DIQMTQSPSSLSASVGDRVTITCRASQDITNYLNWYQQKPGKAVKLLIYYTSRLHSGVPSRFSGSGSGTDYTLTISSLQPEDFATYFCQQGDTLPWTFGQGTKLEIKR
- KD,WT/KD,Ala [1]: 0.71

B2: 20E6_H0.2aL1_hIgG1 VH_M34A (antibody, V domains shown)
VH: B1 VH with M34A, A52D
VL: B1 VL
- KD,WT/KD,Ala [1]: 0.84

B6: 20E6_H0.2aL1_hIgG1 VH_I58A (antibody, V domains shown)
VH: B1 VH with A52D, I58A
VL: B1 VL
- KD,WT/KD,Ala [1]: 0.52

B7: 20E6_H0.2aL1_hIgG1 VH_K59A (antibody, V domains shown)
VH: B1 VH with A52D, K59A
VL: B1 VL
- KD,WT/KD,Ala [1]: 0.69

B11: 20E6_H0.2aL1_hIgG1 VH_Y27A (antibody, V domains shown)
VH: B1 VH with Y27A, A52D
VL: B1 VL
- KD,WT/KD,Ala [1]: 1.29

B12: 20E6_H0.2aL1_hIgG1 VH_G56A (antibody, V domains shown)
VH: B1 VH with A52D, G56A
VL: B1 VL
- KD,WT/KD,Ala [1]: 1.62

B14: 20E6_H0.2aL1_hIgG1 VH_S55A (antibody, V domains shown)
VH: B1 VH with A52D, S55A
VL: B1 VL
- KD,WT/KD,Ala [1]: 0.96

B15: 20E6_H0.2aL1_hIgG1 VH_T30A (antibody, V domains shown)
VH: B1 VH with T30A, A52D
VL: B1 VL
- KD,WT/KD,Ala [1]: 0.94

B16: 20E6_H0.2aL1_hIgG1 VH_F29A (antibody, V domains shown)
VH: B1 VH with F29A, A52D
VL: B1 VL
- KD,WT/KD,Ala [1]: 1.16

B17: 20E6_H0.2aL1_hIgG1 VH_Y32A (antibody, V domains shown)
VH: B1 VH with Y32A, A52D
VL: B1 VL
- KD,WT/KD,Ala [1]: 1

B18: 20E6_H0.2aL1_hIgG1 VL_Q89A (antibody, V domains shown)
VH: B1 VH with A52D
VL: B1 VL with Q89A
- KD,WT/KD,Ala [1]: 0.01

B20: 20E6_H0.2aL1_hIgG1 VH_W33A (antibody, V domains shown)
VH: B1 VH with W33A, A52D
VL: B1 VL
- KD,WT/KD,Ala [1]: 0.12

B21: 20E6_H0.2aL1_hIgG1 VH_I51A (antibody, V domains shown)
VH: B1 VH with I51A, A52D
VL: B1 VL
- KD,WT/KD,Ala [1]: 0.73

B22: 20E6_H0.2aL1_hIgG1 VL_I29A (antibody, V domains shown)
VH: B1 VH with A52D
VL: B1 VL with I29A
- KD,WT/KD,Ala [1]: 0.02

B23: 20E6_H0.2aL1_hIgG1 VH_H35A (antibody, V domains shown)
VH: B1 VH with H35A, A52D
VL: B1 VL
- KD,WT/KD,Ala [1]: 2.07

B24: 20E6_H0.2aL1_hIgG1 VH_D100A (antibody, V domains shown)
VH: B1 VH with A52D, D100A
VL: B1 VL
- KD,WT/KD,Ala [1]: 0.28

B25: 20E6_H0.2aL1_hIgG1 VH_P53A (antibody, V domains shown)
VH: B1 VH with A52D, P53A
VL: B1 VL
- KD,WT/KD,Ala [1]: 0.87

B26: 20E6_H0.2aL1_hIgG1 VH_V107A (antibody, V domains shown)
VH: B1 VH with A52D, V107A
VL: B1 VL
- KD,WT/KD,Ala [1]: 1.08

B27: 20E6_H0.2aL1_hIgG1 VH_T28A (antibody, V domains shown)
VH: B1 VH with T28A, A52D
VL: B1 VL
- KD,WT/KD,Ala [1]: 0.97

B28: 20E6_H0.2aL1_hIgG1 VL_L54A (antibody, V domains shown)
VH: B1 VH with A52D
VL: B1 VL with L54A
- KD,WT/KD,Ala [1]: 0.1

B30: 20E6_H0.2aL1_hIgG1 VH_D106A (antibody, V domains shown)
VH: B1 VH with A52D, D106A
VL: B1 VL
- KD,WT/KD,Ala [1]: 0.24

B31: 20E6_H0.2aL1_hIgG1 VH_G26A (antibody, V domains shown)
VH: B1 VH with G26A, A52D
VL: B1 VL
- KD,WT/KD,Ala [1]: 1.4

B33: 20E6_H0.2aL1_hIgG1 VH_G57A (antibody, V domains shown)
VH: B1 VH with A52D, G57A
VL: B1 VL
- KD,WT/KD,Ala [1]: 0.37

B35: 20E6_H0.2aL1_hIgG1 VL_N31A (antibody, V domains shown)
VH: B1 VH with A52D
VL: B1 VL with N31A
- KD,WT/KD,Ala [1]: 0.48

B37: 20E6_H0.2aL1_hIgG1 VH_Q54A (antibody, V domains shown)
VH: B1 VH with A52D, Q54A
VL: B1 VL
- KD,WT/KD,Ala [1]: 0.67

B38: 20E6_H0.2aL1_hIgG1 VL_H55A (antibody, V domains shown)
VH: B1 VH with A52D
VL: B1 VL with H55A
- KD,WT/KD,Ala [1]: 0.33

B40: 20E6_H0.2aL1_hIgG1 VH_S31A (antibody, V domains shown)
VH: B1 VH with S31A, A52D
VL: B1 VL
- KD,WT/KD,Ala [1]: 0.6

Now from value to binder:

- binding result [2]: no binding
B3: N73D_Y71F (antibody, human IgG1, kappa, V domains shown)
VH: EVQLVESGGGLVQPGGSLRLSCAASGFTFTDYYMSWVRQAPGKGLEWLGFIRNKPNGYTTEYSASVKGRFTISRDDSQSSLYLQMNSLKTEDTAVYYCARYTGGGYFDYWGQGTLLTVSS
VL: B1 VL with V19L, T22S, T30S, A43T, Y71F, F83V
notes: also called 28G11_H2L3 with HC N73D and LC Y71F

- binding result [2]: no binding
B4: N73D_F87Y (antibody, human IgG1, kappa, V domains shown)
VH: B3 VH
VL: B1 VL with V19L, T22S, T30S, A43T, F83V, F87Y
notes: label to be rechecked; also called 28G11_H2L3 with HC N73D and LC F87Y

- binding result [2]: no binding
B5: N73D_V44P (antibody, human IgG1, kappa, V domains shown)
VH: B3 VH
VL: B1 VL with V19L, T22S, T30S, A43T, V44P, F83V
notes: also called 28G11_H2L3 with HC N73D and LC V44P

- binding result [2]: binds
B8: L109V_F87Y (antibody, human IgG1, kappa, V domains shown)
VH: B3 VH with D76N, L116V
VL: B1 VL with V19L, T22S, T30S, A43T, F83V, F87Y
notes: also called 28G11_H2L3 with HC L109V and LC F87Y

- binding result [2]: binds
B9: L109V_T43V (antibody, human IgG1, kappa, V domains shown)
VH: B3 VH with D76N, L116V
VL: B1 VL with V19L, T22S, T30S, A43V, F83V
notes: also called 28G11_H2L3 with HC L109V and LC T43V

- KD,WT/KD,Ala [1]: 1
B10: 20E6_H0.2aL1_hIgG1 VL_T30A (antibody, V domains shown)
VH: B1 VH with A52D
VL: B1 VL with T30A

- KD,WT/KD,Ala [1]: 0.01
B13: 20E6_H0.2aL1_hIgG1 VL_R24A (antibody, V domains shown)
VH: B1 VH with A52D
VL: B1 VL with R24A

- KD,WT/KD,Ala [1]: 0.12
B19: 20E6_H0.2aL1_hIgG1 VL_S52A (antibody, V domains shown)
VH: B1 VH with A52D
VL: B1 VL with S52A

- KD,WT/KD,Ala [1]: 0.02
B29: 20E6_H0.2aL1_hIgG1 VL_R53A (antibody, V domains shown)
VH: B1 VH with A52D
VL: B1 VL with R53A

- binding result [2]: binds
B32: L48V_WT (antibody, human IgG1, kappa, V domains shown)
VH: B3 VH with L48V, D76N
VL: B1 VL with V19L, T22S, T30S, A43T, F83V
notes: also called 28G11_H2L3 with HC L48V

- binding result [2]: binds
B34: L48V_F87Y (antibody, human IgG1, kappa, V domains shown)
VH: B3 VH with L48V, D76N
VL: B1 VL with V19L, T22S, T30S, A43T, F83V, F87Y
notes: also called 28G11_H2L3 with HC L48V and LC F87Y

- binding result [2]: binds
B36: L48V_V44P (antibody, human IgG1, kappa, V domains shown)
VH: B3 VH with L48V, D76N
VL: B1 VL with V19L, T22S, T30S, A43T, V44P, F83V
notes: also called 28G11_H2L3 with HC L48V and LC V44P

- KD,WT/KD,Ala [1]: 0.8
B39: 20E6_H0.2aL1_hIgG1 VL_T51A (antibody, V domains shown)
VH: B1 VH with A52D
VL: B1 VL with T51A

- KD,WT/KD,Ala [1]: 0.64
B41: 20E6_H0.2aL1_hIgG1 VL_T93A (antibody, V domains shown)
VH: B1 VH with A52D
VL: B1 VL with T93A
